Data reported in the DeepSol protein solubility set.

test: soluble on expression in E. coli; label from the status in PepcDB or PDB records

Row | Sequence | soluble on expression in E. coli
1 | MHYQPKQDLLQNRIILVTGASDGIGREAALTYARYGATVILLGRNEEKLRRVAQHIADEQHVQPQWFTLDLLTCTAEECRQVADRIAAHYPRLDGVLHNAGLLGEIGPMSEQDPQIWQDVMQVNVNATFMLTQALLPLLLKSDAGSLVFTSSSVGRQGRANWGAYATSKFATEGMMQVLADEYQNRSLRVNCINPGGTRTSMRASAFPTEDPQKLKTPADIMPLYLWLMGDDSRRKTGMTFDAQPGRKPGIAQ | not soluble
2 | MIDVMQIQEILPHRYPFLLVDKITELKVKEVVLGYKNISISDHVFMGHFPGHPIYPGVLILEGMAQTGGVLAFESMEDKVDPKSKVVYFTGIDGAKFRNPVRPGDRLDYEMSVVKNRGNMWIFKGQAFVDGNLVAEAELKAMIVDK | soluble
3 | GAKDSTVQTSISVENVLERAGDSTPFSVALESIDAMKTIEEITIAGSGKASFSPLTFTTVGQYTYRVYQKPSQNKDYQADTTVFDVLVYVTYDEDGTLVAKVISRRAGDEEKSAITFKPKRLVKPIPPRQPDFPKTPLPLA | soluble
4 | MGKDGEGDKKRETMAVMSLMKDQQNPIQQFQVKFKEIETGFKSWLSKQKLPVEAAVVTAMGGVQGAFIGGLMGTLSPEMPQAGIDPQAMASLKQTQALVGGPLVQARNFAAITGVNAGIACVMKRIRGKEDLESAVVAAFGSGVAYSLVSAGLQGQPMNAITTAAGFAVFQGVFFKLGERFSKPSVEDPYYTRGRSMLLKLGLEKYEKNFKKGLLADPTLPLLTDSALRDVSIPPGPRLLILDHIQRDPELKGKRGSRG | not soluble
5 | MSEELLQKFLTSIEQEDGIAEIGKKKKNKSAARRDNVKTILHAASKGQVQLSAEESYIVQKPSTSKGSDYIDDRLASQGFSLIDQARSFKPKDLKKRNLKYMKFQEGRRIDKKKGRILVQAHMQTKQDLKSLRKEKKAIIGVKEPRRLLPGQKKKQKDKSVFSDADFAQVAHVAKRINSMADHSFL | not soluble
6 | MGSDKIHHHHHHMEFTSLWQEFARISEVEAIALGGSRATGNYDETSDYDLYIYCSSIPDEATRLTILKSFCSYIEIGNHFWELEDDCTLMSGQDIDILYRDINQIRDELVDVVERCIIQNAYTTCLWHNVLHSKILYDSDDKLKCIVNRFDINYPQKLKQTILSHHMNLLTGHLPSYDKQIIKAVMRKDIVSFNHRVTAFLETYFDLIFALNMLTHPGEKRMIAYAEQNAQSLPNHFQKNIERLIYGTTCHPYDIQDILNDILNELTPLLHDSIG | not soluble
7 | MSLKARFLLLAALLSGVAGAYTVKKGDTLYSLARGSGLTVDALMRLNGLSTPELRVGQVIKLPGEGAATPATPAPAAPTPATPAPAAPAPAPAVPTKLPTVATAANVLKLPGVTITAPKALKMGDGFALRLSGEQAANVTVRFPSELGEDVRQPNEELRPLWSSGQYIVPGRVVLGKTTPVIYEVRLGGDVVRGQIPVGDLGQRVQHLNLPPSISKVLQDPAREAEDAAVEQAYQRRTPQQWQQPFASALASGKATSSSFGQPRTYVAGGKVAYHYGTDYPARSGTAVLAINDGTVVIAGRYPVRGGLVVIDHGAGVVSLYFHQSKVTAKVGQQIKRGQKVGEVGSTGLSAGPHLHLEVRVRGEGTNPAGWMGKLWPEGHHHHHH | not soluble
8 | MSLNIKEASEKSGVSADTIRYYERIGLIPPIHRNESGVRKFGAEDLRWILFTRQMRRAGLSIEALIDYLALFREGEHTLEARAELLKKQRIELKNRIDVMQEALDRLDFKIDNYEGHHHHHH | not soluble
9 | MSSNYVMATKEGQMLLTQGKPMLDKDTGLLSYTDEQGNQKQINSDQVSQIVQRLEHHHHHH | not soluble
10 | MSLTAYKRVLLKLSGESLMGAQQYGIDPNRLADYASDIKEACAMGVQIGIVIGGGNIFRGVSGAAKGFDRVKGDQMGMLATVINSLALSSALEGVGVKTKVLTAVRMEPIGEFYNKWHAIELLEQGYVTIFSCGTGNPFFTTDTGSSLRGIEIEADAMLKGTRVDGIYTADPEKDPSATKFDRITYDEIYARGLKVMDLTATAMCMENNLPIVVFDMDTPGNLLKVLRGEKIGTYVSNTSAEGHHHHHH | soluble
11 | MAKSLTFSTFSPNNTLKKNVIPIVLLHGWGLNSGVWQPLLELFHRNDESIYQLITIDLPGFGINSAVDIKPYSLANICHHIEQVIDQPAIYLGWSLGGLIATEMSLKYPEKVLASITVASSPYFVEQPTDNWPGIKENVLESFHKQLAQDTAKTISGFLKIQAMGSPHIRQDLKLITQLVMAHTLPSQQTLADSLALLSNSDLRLHLSKIKQPLLRLYGHNDSLVPKEVMEKISYLAPNSDQHLFADASHAPFISHLDDFYQVLVVWLDSHFNLEHHHHHH | not soluble
12 | MSKDAKSPKKLRSNRAALTHKVGYALRHPERVGPYVRRAGRDAWLRVKHPDHVGYYRAVMASDARRSPEAAVGSRTHDRWLALGQMQFDYLVEHGLRPGHRMLDIGCGNLRGGWRFIDHLDSGHYYGVDISPDILIAAKKTLTERGLQAKLPHLTITGDLRLEFLPDDHFDVVHAHSVFSHSPLNVIDECLAHVGRVLTDTGFFDFTFDRTEGTEHQVLREDFYYRTDTLLTLAAQHNLHARFMEDWEKRPHGQSKIRVSRSPLPSLEHHHHHH | not soluble
13 | MGTVEKSSNNDASVTDDIRSAEYYHGMVPRQDAEGFLKREGDFLVRKTEQMPGKVVLAMSVRVTDELCRHFMLNMDPTSNKFYFEHTHQESTISELINWHMTTKTPISAASGAKIRRPMERSPWLINHDSIVANKKLGEGAFGDVFIAELDQGGKQEVAVKTMRAEATREARLRFMKEARLMRKYQHKHVVKLIGVAIHEHPLMIVMEYCPNGSLLSHLKKNKVSLIEKLRFTTEAADGIAYLERSKCIHRDIAARNCLLSAKNELKISDFGMSDNKDEIKDETLEKVPIKWLAPETMQEKVYTHKTDIWTFGVLVWEIYSDGAEPYPGLTKIQTRAKIVVNDYRMKMPDGTHPTVADVVTGTCWQKNPEKRSTMDSIHKKLREFYESKK | not soluble
14 | MEKKIGKLSIRVLLNTHRRNDCEIYPLIIRVVYHRRKSEYSLGWKIHTSNFSADRERVVYSSTGNLKRKDLGLINDAISQERERLLKIFAFLQQNMPGFSLSQLMDKYRMERNLRYVDAFIVREIERLRQEGRSGTAGLYLSGLYSLRRFLRGQKITFRELTYCFLTDYIHFLRMRGISENTVNMYIRNLRAVYNKAQKQGINMGCESPFRELKLQTQETAKRALCKHDIARIVSVDLSSEPLLDRARDLFMFSFYARGMPFVDIVFLKHDSIINGIIYYERNKTGQRMQVRVIPPLAALIEKYRSSYPYVLPYITSFSDRTSYMQYRYALGNVNRLLKRLGRRLHLPLVLTTYVARHSWATIAKEEGFSIASISEGLGHTSEATTQIYLQSFNSEVIDKINEQVVASIGRHI | not soluble
15 | MNDSSVIYRAIVTSKFRTEKMLNFYNSIGSGPDKNTIFITFGRSEPWSSNENEVGFAPPYPTDSVLGVTDMWTHMMGTVKVLPSMLDAVIPRRDWGDTRYPDPYTFRINDIVVCNSAPYNATESGAGWLVYRCLDVPDTGMCSIASLTDKDECLKLGGKWTPSARSMTPPEGRGDAEGTIEPGDGYVWEYLFEIPPDVSINRCTNEYIVVPWPEELKEDPTRWGYEDNLTWQQDDFGLIYRVKANTIRFKAYLDSVYFPEAALPGNKGFRQISIITNPLEAKAHPNDPNVKAEKDYYDPEDLMRHSGEMIYMENRPPIIMAMDQTEEINILFTF | soluble
16 | MSKKPTSAYVHIPFCTQICYYCDFSKVFIKNQPVDAYLEALIKEFNDYYQIKDLQTLYIGGGTPTAISGEQLDYLLTNLSKNLNLNMLEEFTIEANPGDLTPDKVAVLKQSAVNRVSLGVQTFNNKHLKQIGRGHNEAQIYESIDSLKSAGFDNISIDLIYALPNQTITDVKENVAKALALDIPHLSLYNLILEHHTVFMNKMRRGKLNLPAEDLEAEMFDYIISEMEDHGFEHYEISNFTKPGFESRHNLMYWNNAEYFGCGAGASGYVDGIRYRNRGPIQHYLKAIKEKRQARFQEERLSQSEKMEEELFLGLRKKSGISIQRFEDKFGLPLMEVYGQAIDDLEKDGLILVEKDCIRMSKKGLFLGDTVAEKFILEQK | not soluble
17 | MDYRVIKENDVFLLTDQDGNIPEHHPYGLGLYTKDTRFLSKWSLRINGEEPVLLASDAAQNYVATILLTNPHIERDGELILWRESVEIERKRFIYAGVLYETIKLKNYHPKPVQLEISVHMDADFADMFIVRGFQTGEVGKRTGQTIGKRSLTFHYEGADGVERATKVSWDREEKTVKEHGEIVFDFALDRAEEQTVTLMVEPITGKTGRVEVIPPEQALQRLQESYQRWEGETANVITDERQFERLVRRGIGDLRVLLTDLGCGPFPVAGLPWFGVPFGRDSLIAALQLLPFNHEIAKGTLLTMARYQGTKVDPWRDEQPGKIMHEIRFGELANTNQIPFTPYYGTIDATPLFLVLLVEYVKWTGNFDLVRQLRSNIDAALHWIDRYGDRDGDLFVEYFQESSKGIANQGWKDSGDSIVHENGEYARAPIALVEVQGYVYHAKMGLADIFEQLQEVEKAEALRTQAEALKKRFEEQFWMEDRKFYALALDENKAPVRTITSNPGHVLFSGMLEGRRADAVIDTLLSEKMFSGYGIRTMGEGEAGYNPMSYHNGSIWPHDNSLILLGLSKLGRRREAKTVIEGLMEASMHFEYDRLPELFCGYSRSEGKPVRYPVACSPQAWAAGTPLVFVQALLGLFPNALEKNIYLSPTLLDSMNMLRVENILIGGGRLSLTVTREQDNFHVQIDENTTGWDIVLR | not soluble
18 | MIPGTIPTSYLVPTADTEATGVVSLSARAAMLNNMDSAPLSNGGDVDLYDAFYQRLLALPESASSETLKDSIYQEMNAFKDPNSGDSAFVSFEQQTAMLQNMLAKVEPGTHLYEALNGVLVGSMNAQSQMTSWMQEIILSGGENKEAIDW | not soluble
19 | MEYIYASLLLHSAKKEISEDALKNVLTAAGISVDEVRLKAVVAALKEVNIDEVLKNAAAMPVAVAAQPQATQAQPAAEEKKEEKKEEEKKGPSEEEIASGLASLFGLEHHHHHH | not soluble
20 | EQSSSEIKIVRDEYGMPHIYANDTWHLFYGYGYVVAQDRLFQMEMARRSTQGTVAEVLGKDFVKFDKDIRRNYWPDAIRAQIAALSPEDMSILQGYADGMNAWIDKVNTNPETLLPKQFNTFGFTPKRWEPFDVAMIFVGTMANRFSDSTSEIDNLALLTALKDKYGVSQGMAVFNQLKWLVNPSAPTTIAVQESNYPLKFNQQNSQTAALLPRYDLPAPMLDRPAKGADGALLALAAGKNRETIAAQFAQGGANGLAGY | soluble
21 | PLGSDSAKLIFINQINDCKDGQKLRFLGCVQSYKNGILRLIDGSSSVTCDVTVVLPDVSIQKHEWLNIVGRKRQDGIVDVLLIRSAVGINLPRYRQMVSERQKCD | soluble
22 | MPPKGGGAGSKKQQGGKKCKDDEADFDAQLAKALQEVQVSKDKQGGDANKKAQKGKQRTSKQESNGEANDNNDASDPKVVSTADHPDNPYPQVAEGMKRQTWPEPTIPVSQQFARGNFPVGIICEHPGEVNAYRYSSEEKRAMEHATEEQVQDLRCAAEVHRQVRRYAQSFIKPGISLLSMTDRIEKKLEELIEKDGLNRGQAFPTGCSLNHVAAHYTPNTGDKCVLMYDDVMKVDFGTQINGRIIDCAWTVAFKDEYEPLLTAVKEATYEGVKQAGIDVRLCDVGAAIQEVMESYEVELNGKVYPVKSIRNLSGHTIAPYVIHGGKSVPIVRGGEATRMEEGELFAIETFGSTGRGFVQEDMECSHYMMVPGGEKTQVRSDKAQQLLRHIHKTYNTLAFARKWLDRDGHDRHLLNLNQLVEAGAVNKYPPLCDIRGCYTAQLEHTLILKPTAKEILSKGDDY | soluble
